The values that follow are results of earlier work, collected in paper PMC5342242.

The term Kd denotes the free concentration of one partner at which half of the binding sites on the other are occupied at equilibrium, for simple one-to-one binding.

Read-outs that look alike come from different tables or passages of the source.

Data set [1] has as its target DNA polymerase III α subunit (Escherichia coli) (UniProt P10443). Briefly: tryptophan fluorescence.
The target in data set [2] is DNA polymerase III α subunit 1-280 (Escherichia coli) (UniProt P10443). Briefly: tryptophan fluorescence.
For data set [3], the target named is DNA polymerase III α subunit 917-1160 (Escherichia coli) (UniProt P10443). Briefly: tryptophan fluorescence.
Data set [4] addresses DNA pol III alpha 917-1160 (Escherichia coli) (UniProt P10443).
The target of data set [5] is DNA pol III alpha 1-280 (Escherichia coli) (UniProt P10443).
Data set [6] concerns the target DNA pol III alpha (Escherichia coli) (UniProt P10443).
The target in data set [7] is DNA pol III alpha 917-1160 (Escherichia coli) (UniProt P10443). The source holds these as a separate data set.
Chain of DNA pol III alpha 917-1160 (Escherichia coli) (P10443 917-1160): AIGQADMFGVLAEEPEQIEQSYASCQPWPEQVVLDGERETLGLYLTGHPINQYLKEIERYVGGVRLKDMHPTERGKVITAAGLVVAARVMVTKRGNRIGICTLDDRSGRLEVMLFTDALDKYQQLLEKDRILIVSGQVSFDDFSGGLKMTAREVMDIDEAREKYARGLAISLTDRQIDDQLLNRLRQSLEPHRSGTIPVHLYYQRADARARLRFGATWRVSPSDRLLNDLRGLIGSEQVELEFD

Chain of DNA polymerase III α subunit 1-280 (Escherichia coli) (P10443 1-280): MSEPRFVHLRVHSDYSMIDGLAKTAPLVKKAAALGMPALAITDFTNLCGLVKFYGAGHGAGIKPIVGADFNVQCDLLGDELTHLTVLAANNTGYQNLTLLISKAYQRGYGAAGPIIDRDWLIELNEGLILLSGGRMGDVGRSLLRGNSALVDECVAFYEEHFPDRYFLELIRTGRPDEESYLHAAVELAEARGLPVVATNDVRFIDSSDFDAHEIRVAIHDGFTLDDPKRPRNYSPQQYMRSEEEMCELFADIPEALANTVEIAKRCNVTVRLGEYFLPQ
Chain of DNA polymerase III α subunit (Escherichia coli) (P10443 whole entry): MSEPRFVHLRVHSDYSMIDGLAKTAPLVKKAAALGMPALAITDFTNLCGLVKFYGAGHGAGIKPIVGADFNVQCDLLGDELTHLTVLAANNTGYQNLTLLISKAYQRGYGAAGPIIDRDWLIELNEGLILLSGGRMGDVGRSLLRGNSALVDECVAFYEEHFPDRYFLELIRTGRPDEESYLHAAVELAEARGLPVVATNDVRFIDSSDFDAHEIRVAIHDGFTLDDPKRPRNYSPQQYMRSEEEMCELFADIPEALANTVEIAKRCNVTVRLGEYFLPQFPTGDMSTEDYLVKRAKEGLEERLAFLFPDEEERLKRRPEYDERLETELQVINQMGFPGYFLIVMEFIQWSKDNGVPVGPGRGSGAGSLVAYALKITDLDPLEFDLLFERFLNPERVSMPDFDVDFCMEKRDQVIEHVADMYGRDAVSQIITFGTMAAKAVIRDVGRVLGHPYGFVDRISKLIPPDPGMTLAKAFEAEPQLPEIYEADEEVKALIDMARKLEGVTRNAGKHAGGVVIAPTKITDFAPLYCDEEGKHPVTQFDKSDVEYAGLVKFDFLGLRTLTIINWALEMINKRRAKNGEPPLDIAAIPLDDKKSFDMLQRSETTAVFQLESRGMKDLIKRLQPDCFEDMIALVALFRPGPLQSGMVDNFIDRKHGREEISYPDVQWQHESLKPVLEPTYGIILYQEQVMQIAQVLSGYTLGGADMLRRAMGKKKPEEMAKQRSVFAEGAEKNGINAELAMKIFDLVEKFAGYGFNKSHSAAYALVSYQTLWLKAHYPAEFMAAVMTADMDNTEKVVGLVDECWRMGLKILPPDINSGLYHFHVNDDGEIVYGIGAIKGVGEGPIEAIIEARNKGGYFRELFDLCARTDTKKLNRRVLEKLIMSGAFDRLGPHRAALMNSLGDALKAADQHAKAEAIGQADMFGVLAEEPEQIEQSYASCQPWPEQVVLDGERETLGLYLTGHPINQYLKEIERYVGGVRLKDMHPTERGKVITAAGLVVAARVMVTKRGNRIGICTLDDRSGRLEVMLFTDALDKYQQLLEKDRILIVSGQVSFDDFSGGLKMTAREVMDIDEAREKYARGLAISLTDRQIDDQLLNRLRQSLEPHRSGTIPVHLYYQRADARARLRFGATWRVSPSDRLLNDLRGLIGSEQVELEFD
Chain of UmuD (P0AG11 25-139): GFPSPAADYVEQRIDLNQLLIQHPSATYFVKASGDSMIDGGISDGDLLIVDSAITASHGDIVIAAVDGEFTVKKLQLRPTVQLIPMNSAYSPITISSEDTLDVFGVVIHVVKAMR
Chain of UmuD' (P0AG11 25-139): as above
Chain of DNA polymerase III α subunit 917-1160 (Escherichia coli) (P10443 917-1160): as the sequence (P10443 917-1160) above
Chain of DNA pol III alpha 1-280 (Escherichia coli) (P10443 1-280): as the sequence (P10443 1-280) above
Chain of DNA pol III alpha (Escherichia coli) (P10443 whole entry): as the sequence (P10443 whole entry) above

As to UmuD 3A (from UniProt P0AG11), the Kd in data set [1] is 8.7 µM; in data set [2], 9.3 µM; in data set [3], 3.4 µM.

UmuD (from UniProt P0AG11): the Kd in data set [4] was 0.7 µM; in data set [1] it was 1.1 µM; in data set [2], 7.3 µM; in data set [3], 13.9 µM.

UmuD S60A (from UniProt P0AG11): the Kd in data set [1] is 10.6 µM; in data set [2], 10.3 µM; in data set [3], 0.7 µM.

As for UmuD' (from UniProt P0AG11), the values for the Kd in data set [5], in data set [6] and in data set [7] were 8.6 µM, 10.9 µM and 3.8 µM, respectively.
